# Measured values reported in patent publication EP4624492A1 (Shanghai Hongcheng Biopharmaceutical Co., Ltd., dated 2025).
# Like-named read-outs stand apart in the source and are kept apart here.
# What was measured:
# human CCR8 [1] = target: T1, human CCR8 (human, UniProt P51685 1-355); assay: flow cytometry, competition with 10 nM AF647-human CCL1 on 293F-hCCR8 cells
# T1 construct: whole, on cells; the cell line is named under assay; also called hCCR8
# human CCR8 [2] = target: T1, human CCR8; assay: cell-based or functional assay
# human CCR8 [3] = target: T1, human CCR8; assay: cell-based or functional assay; remark: listed apart in the source
# human CCR8 [4] = target: T1, human CCR8; assay: flow cytometry on 293F-hCCR8 cells
# human CCR8 [5] = target: T1, human CCR8; assay: cell-based or functional assay; remark: listed apart in the source
# T1 sequence (P51685 whole entry): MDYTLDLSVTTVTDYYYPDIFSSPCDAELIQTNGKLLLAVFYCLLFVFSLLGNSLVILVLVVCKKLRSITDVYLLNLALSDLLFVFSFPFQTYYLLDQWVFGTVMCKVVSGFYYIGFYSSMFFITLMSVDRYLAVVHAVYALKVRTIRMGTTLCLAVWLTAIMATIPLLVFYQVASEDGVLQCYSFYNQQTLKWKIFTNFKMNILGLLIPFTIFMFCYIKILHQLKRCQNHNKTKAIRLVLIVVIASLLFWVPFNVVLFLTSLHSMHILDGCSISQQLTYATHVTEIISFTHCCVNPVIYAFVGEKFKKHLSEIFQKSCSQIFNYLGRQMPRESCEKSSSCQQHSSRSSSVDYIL
Binder,IC50 (human CCR8 [1]),EC50 of activation of Jurkat-human FcγRIIIa(158V)-NFAT with 293F-hCCR8 target cells (human CCR8 [2]),IC50 of blockade of CCL1-induced β-arrestin recruitment (human CCR8 [3]),EC50 (human CCR8 [4]),EC50 of activation of Jurkat-human FcγRIIIa(158V)-NFAT with 293F-hCCR8 target cells (human CCR8 [5])
"563E10E12_hzH3L0_hIgG1 (antibody, Humanized, hIgG1/K) heavy: not shown light: DIVMTQSPLSLPVTPGEPASISCRSSKSLLHSNGITYLFWYLQKPGQSPQLLIYQMSNLASGVPDRFSGSGSGTDFTLKISRVEAEDVGVYYCAQSLELPLTFGGGTKVEIKRTVAAPSVFIFPPSDEQLKSGTASVVCLLNNFYPREAKVQWKVDNALQSGNSQESVTEQDSKDSTYSLSSTLTLSKADYEKHKVYACEVTHQGLSSPVTKSFNRGEC",0.0761 µg/mL,35.7 ng/mL,1160 ng/mL,0.133 µg/mL,–
"563E10E12_hzH1L1_VLPLL (antibody, human IgG1, kappa) heavy: EVQLVESGGGLVQPGGSLKLSCAASGFNFNAYAMNWVRQASGKGLEWVGRIRSKSNNFATYYADSVTDRFTISRDDSKNTAYLQMNSLKTEDTAVYYCVRHGRRDLLYSMDFWGQGTTVTVSSASTKGPSVFPLAPSSKSTSGGTAALGCLVKDYFPEPVTVSWNSGALTSGVHTFPAVLQSSGLYSLSSVVTVPSSSLGTQTYICNVNHKPSNTKVDKKVEPKSCDKTHTCPPCPAPELVGGPSVFLLPPKPKDTLMISRTPEVTCVVVDVSHEDPEVKFNWYVDGVEVHNAKTKPPEEQYNSTLRVVSVLTVLHQDWLNGKEYKCKVSNKALPAPIEKTISKAKGQPREPQVYTLPPSRDELTKNQVSLTCLVKGFYPSDIAVEWESNGQPENNYKTTPLVLDSDGSFFLYSKLTVDKSRWQQGNVFSCSVMHEALHNHYTQKSLSLSPGK light: DVVMTQSPLSLPVTPGEPASISCRSSKSLLHSNGITYLFWYLQKPGQSPQLLIYQMSNLASGVPDRFSGSGSGTDFTLKISRVEAEDVGVYYCAQSLELPLTFGGGTKVEIKRTVAAPSVFIFPPSDEQLKSGTASVVCLLNNFYPREAKVQWKVDNALQSGNSQESVTEQDSKDSTYSLSSTLTLSKADYEKHKVYACEVTHQGLSSPVTKSFNRGEC",–,–,–,–,1.3 ng/mL
"563E10E12_hzH6L1_hIgG1 (antibody, Humanized, hIgG1/K) heavy: not shown light: DVVMTQSPLSLPVTPGEPASISCRSSKSLLHSNGITYLFWYLQKPGQSPQLLIYQMSNLASGVPDRFSGSGSGTDFTLKISRVEAEDVGVYYCAQSLELPLTFGGGTKVEIKRTVAAPSVFIFPPSDEQLKSGTASVVCLLNNFYPREAKVQWKVDNALQSGNSQESVTEQDSKDSTYSLSSTLTLSKADYEKHKVYACEVTHQGLSSPVTKSFNRGEC",0.0579 µg/mL,–,1650 ng/mL,0.0593 µg/mL,–
"563E10E12_hzH0L0_hIgG1 (antibody, Humanized, hIgG1/K) heavy: not shown light: DIVMTQSPLSLPVTPGEPASISCRSSKSLLHSNGITYLFWYLQKPGQSPQLLIYQMSNLASGVPDRFSGSGSGTDFTLKISRVEAEDVGVYYCAQSLELPLTFGGGTKVEIKRTVAAPSVFIFPPSDEQLKSGTASVVCLLNNFYPREAKVQWKVDNALQSGNSQESVTEQDSKDSTYSLSSTLTLSKADYEKHKVYACEVTHQGLSSPVTKSFNRGEC",0.0958 µg/mL,28.6 ng/mL,3510 ng/mL,0.107 µg/mL,–
"563E10E12_hzH2L1_hIgG1 (antibody, Humanized, hIgG1/K) heavy: not shown light: DVVMTQSPLSLPVTPGEPASISCRSSKSLLHSNGITYLFWYLQKPGQSPQLLIYQMSNLASGVPDRFSGSGSGTDFTLKISRVEAEDVGVYYCAQSLELPLTFGGGTKVEIKRTVAAPSVFIFPPSDEQLKSGTASVVCLLNNFYPREAKVQWKVDNALQSGNSQESVTEQDSKDSTYSLSSTLTLSKADYEKHKVYACEVTHQGLSSPVTKSFNRGEC",0.064 µg/mL,30.5 ng/mL,1520 ng/mL,0.136 µg/mL,–
"563E10E12_hzH4L1_hIgG1 (antibody, Humanized, hIgG1/K) heavy: not shown light: DVVMTQSPLSLPVTPGEPASISCRSSKSLLHSNGITYLFWYLQKPGQSPQLLIYQMSNLASGVPDRFSGSGSGTDFTLKISRVEAEDVGVYYCAQSLELPLTFGGGTKVEIKRTVAAPSVFIFPPSDEQLKSGTASVVCLLNNFYPREAKVQWKVDNALQSGNSQESVTEQDSKDSTYSLSSTLTLSKADYEKHKVYACEVTHQGLSSPVTKSFNRGEC",0.0458 µg/mL,25.9 ng/mL,2100 ng/mL,0.116 µg/mL,–
"563E10E12_hzH2L0_hIgG1 (antibody, Humanized, hIgG1/K) heavy: not shown light: DIVMTQSPLSLPVTPGEPASISCRSSKSLLHSNGITYLFWYLQKPGQSPQLLIYQMSNLASGVPDRFSGSGSGTDFTLKISRVEAEDVGVYYCAQSLELPLTFGGGTKVEIKRTVAAPSVFIFPPSDEQLKSGTASVVCLLNNFYPREAKVQWKVDNALQSGNSQESVTEQDSKDSTYSLSSTLTLSKADYEKHKVYACEVTHQGLSSPVTKSFNRGEC",0.0689 µg/mL,28.1 ng/mL,1460 ng/mL,0.103 µg/mL,–
"563E10E12_hzH5L0_hIgG1 (antibody, Humanized, hIgG1/K) heavy: not shown light: DIVMTQSPLSLPVTPGEPASISCRSSKSLLHSNGITYLFWYLQKPGQSPQLLIYQMSNLASGVPDRFSGSGSGTDFTLKISRVEAEDVGVYYCAQSLELPLTFGGGTKVEIKRTVAAPSVFIFPPSDEQLKSGTASVVCLLNNFYPREAKVQWKVDNALQSGNSQESVTEQDSKDSTYSLSSTLTLSKADYEKHKVYACEVTHQGLSSPVTKSFNRGEC",0.0851 µg/mL,35.5 ng/mL,1700 ng/mL,0.13 µg/mL,–
"563E10E12_hzH3L1_hIgG1 (antibody, Humanized, hIgG1/K) heavy: not shown light: DVVMTQSPLSLPVTPGEPASISCRSSKSLLHSNGITYLFWYLQKPGQSPQLLIYQMSNLASGVPDRFSGSGSGTDFTLKISRVEAEDVGVYYCAQSLELPLTFGGGTKVEIKRTVAAPSVFIFPPSDEQLKSGTASVVCLLNNFYPREAKVQWKVDNALQSGNSQESVTEQDSKDSTYSLSSTLTLSKADYEKHKVYACEVTHQGLSSPVTKSFNRGEC",0.0732 µg/mL,26.1 ng/mL,1530 ng/mL,0.114 µg/mL,–
"563E10E12_hzH5L1_hIgG1 (antibody, Humanized, hIgG1/K) heavy: not shown light: DVVMTQSPLSLPVTPGEPASISCRSSKSLLHSNGITYLFWYLQKPGQSPQLLIYQMSNLASGVPDRFSGSGSGTDFTLKISRVEAEDVGVYYCAQSLELPLTFGGGTKVEIKRTVAAPSVFIFPPSDEQLKSGTASVVCLLNNFYPREAKVQWKVDNALQSGNSQESVTEQDSKDSTYSLSSTLTLSKADYEKHKVYACEVTHQGLSSPVTKSFNRGEC",0.0878 µg/mL,26.4 ng/mL,1380 ng/mL,0.129 µg/mL,–
"563E10E12_hzH4L0_hIgG1 (antibody, Humanized, hIgG1/K) heavy: not shown light: DIVMTQSPLSLPVTPGEPASISCRSSKSLLHSNGITYLFWYLQKPGQSPQLLIYQMSNLASGVPDRFSGSGSGTDFTLKISRVEAEDVGVYYCAQSLELPLTFGGGTKVEIKRTVAAPSVFIFPPSDEQLKSGTASVVCLLNNFYPREAKVQWKVDNALQSGNSQESVTEQDSKDSTYSLSSTLTLSKADYEKHKVYACEVTHQGLSSPVTKSFNRGEC",0.0544 µg/mL,38.8 ng/mL,1490 ng/mL,0.102 µg/mL,–
563E10E12_hzH0L1_hIgG1 (antibody) heavy: not shown light: DVVMTQSPLSLPVTPGEPASISCRSSKSLLHSNGITYLFWYLQKPGQSPQLLIYQMSNLASGVPDRFSGSGSGTDFTLKISRVEAEDVGVYYCAQSLELPLTFGGGTKVEIKRTVAAPSVFIFPPSDEQLKSGTASVVCLLNNFYPREAKVQWKVDNALQSGNSQESVTEQDSKDSTYSLSSTLTLSKADYEKHKVYACEVTHQGLSSPVTKSFNRGEC,0.0862 µg/mL,29.9 ng/mL,3650 ng/mL,0.118 µg/mL,–
"559E1B10_hzH1L1_DE (antibody, human IgG1, kappa) heavy: not shown light: EIVLTQSPATLSLSPGERATLSCRASQSISDYLHWYQQKPGQAPRLLLKYVSQSISGIPARFSGSGSGTDFTLTISSLEPEDFAVYYCQNGHSFPLTFGGGTKVEIKRTVAAPSVFIFPPSDEQLKSGTASVVCLLNNFYPREAKVQWKVDNALQSGNSQESVTEQDSKDSTYSLSSTLTLSKADYEKHKVYACEVTHQGLSSPVTKSFNRGEC",–,–,–,–,0.6 ng/mL
"559E1B10_hzH1L1_VLPLL (antibody, human IgG1, kappa) heavy: QVQLVQSGAEVKKPGASVKVSCKASGYTFTDYYVNWVRQAPGQGLEWMGVINPHNGDTRYNQKFKGRVTMTVDKSTSTVYMELSSLRSEDTAVYYCASWLRRGYYFDSWGQGTTVTVSSASTKGPSVFPLAPSSKSTSGGTAALGCLVKDYFPEPVTVSWNSGALTSGVHTFPAVLQSSGLYSLSSVVTVPSSSLGTQTYICNVNHKPSNTKVDKKVEPKSCDKTHTCPPCPAPELVGGPSVFLLPPKPKDTLMISRTPEVTCVVVDVSHEDPEVKFNWYVDGVEVHNAKTKPPEEQYNSTLRVVSVLTVLHQDWLNGKEYKCKVSNKALPAPIEKTISKAKGQPREPQVYTLPPSRDELTKNQVSLTCLVKGFYPSDIAVEWESNGQPENNYKTTPLVLDSDGSFFLYSKLTVDKSRWQQGNVFSCSVMHEALHNHYTQKSLSLSPGK light: EIVLTQSPATLSLSPGERATLSCRASQSISDYLHWYQQKPGQAPRLLLKYVSQSISGIPARFSGSGSGTDFTLTISSLEPEDFAVYYCQNGHSFPLTFGGGTKVEIKRTVAAPSVFIFPPSDEQLKSGTASVVCLLNNFYPREAKVQWKVDNALQSGNSQESVTEQDSKDSTYSLSSTLTLSKADYEKHKVYACEVTHQGLSSPVTKSFNRGEC",–,–,–,–,1.4 ng/mL
